Assay [1] addresses T1, human MCH-2R (human, UniProt Q969V1 1-340).
T1 construct: Function: 293AEQ17/MCH-2R cells; also called hMCH-2R
The assay can be described thus: SPA, displacement of [125I]-[Phe13,Tyr19]-hMCH, MCH-2R membranes. The procedure:
(§1) After equilibrating at room temperature for 3 hours, the plates were read in a TopCount (Packard, Meriden, Conn.). IC₅₀ calculations were performed using Prism 3.0 (GraphPad. Software, San Diego, Calif.). The IC₅₀ values were measured in three different experiments.
In general terms: Displacement assays read how much labelled ligand stays bound in the presence of the test substance.

In assay [2] the target is T2, human MCH-1R (human, UniProt Q99705 1-353).
T2 construct: Function: 293AEQ17/MCH-1R cells; also called hMCH-1R
T2 sequence (Q99705 whole entry): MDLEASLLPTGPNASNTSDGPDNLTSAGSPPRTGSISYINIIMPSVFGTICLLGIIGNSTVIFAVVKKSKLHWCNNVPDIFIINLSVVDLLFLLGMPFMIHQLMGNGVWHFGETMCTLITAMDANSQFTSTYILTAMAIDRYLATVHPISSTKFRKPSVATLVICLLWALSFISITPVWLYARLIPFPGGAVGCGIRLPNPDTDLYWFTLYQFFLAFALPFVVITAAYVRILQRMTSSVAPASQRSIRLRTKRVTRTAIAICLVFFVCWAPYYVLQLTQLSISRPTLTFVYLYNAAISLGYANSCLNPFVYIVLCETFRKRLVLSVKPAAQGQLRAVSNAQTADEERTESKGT
The experiment in a line: SPA, displacement of [125I]-[Phe13,Tyr19]-hMCH, CHO/MCH-1R membranes. How it is done: as §1

In assay [3] the target is T1, human MCH-2R. The experiment in a line: cell-based or functional assay.
The target in assay [4] is T2, human MCH-1R. The experiment in a line: cell-based or functional assay.
Assay [5] addresses T1, human MCH-2R. The experiment in a line: cell-based or functional assay. The source holds these as a separate data set.
Assay [6] addresses T2, human MCH-1R. The experiment in a line: cell-based or functional assay. The source holds these as a separate data set.
Assay [7] deals with T2, human MCH-1R. The experiment in a line: SPA, displacement of [125I]-[Phe13,Tyr19]-hMCH, CHO/MCH-1R membranes.
Assay [8] deals with T1, human MCH-2R. The experiment in a line: SPA, displacement of [125I]-[Phe13,Tyr19]-hMCH, MCH-2R membranes. The procedure: as §1
This is another data set of the same source.

Assay [9] deals with T1, human MCH-2R. Described as above. How it is done:
as §1
This is another data set of the same source.

The target in assay [10] is T2, human MCH-1R. The assay can be described thus: cell-based or functional assay. The source holds these as a separate data set.
The target in assay [11] is T2, human MCH-1R. The assay can be described thus: SPA, displacement of [125I]-[Phe13,Tyr19]-hMCH, CHO/MCH-1R membranes. How it is done:
as §1
The source holds these as a separate data set.

Assay [12] addresses T2, human MCH-1R. The experiment in a line: cell-based or functional assay. This is another data set of the same source.
Assay [13] concerns the target T2, human MCH-1R. The experiment in a line: SPA, displacement of [125I]-[Phe13,Tyr19]-hMCH, CHO/MCH-1R membranes. How it is done: as §1
This is another data set of the same source.

Assay [14] deals with T1, human MCH-2R. The experiment in a line: cell-based or functional assay. The source holds these as a separate data set.
Assay [15] deals with T1, human MCH-2R. The assay can be described thus: cell-based or functional assay. The source holds these as a separate data set.
For assay [16], the target named is T2, human MCH-1R. The assay can be described thus: ratio of the two SPA IC50s. The procedure: as §1
Assay [17] has as its target T2, human MCH-1R. The experiment in a line: cell-based or functional assay. This is another data set of the same source.

Read-outs that look alike come from different tables or passages of the source. Positions of bridges follow the written chain, without caps; N, C: chain ends. Non-standard residues stand in square brackets, D forms with d. No end group written: not given here. dCit = NC(=O)NCCC[C@@H](N)C(=O)O A value given as a limit tells only on which side of the number the result lay.

The text below walks through data of patent US20050020492A1 (MERCK, published 2005).

T1 sequence (Q969V1 whole entry): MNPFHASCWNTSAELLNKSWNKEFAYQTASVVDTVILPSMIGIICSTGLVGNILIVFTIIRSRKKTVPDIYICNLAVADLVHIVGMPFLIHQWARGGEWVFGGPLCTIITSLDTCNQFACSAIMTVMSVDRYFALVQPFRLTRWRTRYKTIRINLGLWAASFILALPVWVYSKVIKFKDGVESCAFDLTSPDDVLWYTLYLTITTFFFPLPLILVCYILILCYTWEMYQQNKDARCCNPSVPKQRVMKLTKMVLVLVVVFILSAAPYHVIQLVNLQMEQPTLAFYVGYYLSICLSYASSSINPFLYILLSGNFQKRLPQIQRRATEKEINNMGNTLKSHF

B1: SEQ. ID. NO. 9 (Ac-D-Phe^6 analog of Ac-hMCH(6-16)-NH2) (peptide)
peptide: XCMLGRVYRPC
HELM: PEPTIDE1{[ac].[dF].C.M.L.G.R.V.Y.R.P.C.[am]}$PEPTIDE1,PEPTIDE1,3:R3-12:R3$$$V2.0
SMILES: CSCC[C@@H]1NC(=O)[C@@H](NC(=O)[C@@H](Cc2ccccc2)NC(C)=O)CSSC[C@@H](C(N)=O)NC(=O)[C@@H]2CCCN2C(=O)[C@H](CCCNC(=N)N)NC(=O)[C@H](Cc2ccc(O)cc2)NC(=O)[C@H](C(C)C)NC(=O)[C@H](CCCNC(=N)N)NC(=O)CNC(=O)[C@H](CC(C)C)NC1=O
By IC50 is commonly meant the point on the concentration scale where inhibition reaches its midpoint. Consider B1, for which the values for the IC50 in assay [1] and in assay [2] were 1250 nM and 0.9 nM, respectively. For the same molecule, the “EC50, aequorin bioluminescence” value in assay [3] stood at 510 nM; in assay [4], 66 nM. The “Activation %, aequorin bioluminescence” value in [4] amounted to 117%.

For Ac-[dCit]CMLNRVYRPC-NH2 (disulfide 2-11 (inferred)) [SEQ. ID. NO. 34 (D-Cit^6, Asn^10 analog of Ac-hMCH(6-16)-NH2)], in assay [5], the Activation %, aequorin bioluminescence came to 8% and the EC50, aequorin bioluminescence is over 10000 nM. In assay [6], this molecule displayed an Activation %, aequorin bioluminescence of 110% and an EC50, aequorin bioluminescence of 1460 nM. Moreover, the IC50 in assay [7] was found to be 8.3 nM.

B2: SEQ. ID. NO. 13 (Ac-D-Lys^6 analog of Ac-hMCH(6-16)-NH2) (peptide)
peptide: XCMLGRVYRPC
HELM: PEPTIDE1{[ac].[dK].C.M.L.G.R.V.Y.R.P.C.[am]}$PEPTIDE1,PEPTIDE1,3:R3-12:R3$$$V2.0
SMILES: CSCC[C@@H]1NC(=O)[C@@H](NC(=O)[C@@H](CCCCN)NC(C)=O)CSSC[C@@H](C(N)=O)NC(=O)[C@@H]2CCCN2C(=O)[C@H](CCCNC(=N)N)NC(=O)[C@H](Cc2ccc(O)cc2)NC(=O)[C@H](C(C)C)NC(=O)[C@H](CCCNC(=N)N)NC(=O)CNC(=O)[C@H](CC(C)C)NC1=O
Consider B2, for which the IC50 is 1030 nM in assay [1] and 0.3 nM in [2]. In addition, the “Activation %, aequorin bioluminescence” value in assay [3] amounted to 55%; in [4], 130%. The “EC50, aequorin bioluminescence” value turned out to be 2100 nM in [3] and 94 nM in [4].

As to Ac-RCMLGRVYRPC-NH2 (disulfide 2-11 (inferred), also called ID; NO; parent compound) [Ac-hMCH(6-16)-NH2], the 50% inhibitory concentration (IC50) was determined as 2 nM in assay [8]; 2 nM in assay [1]; 2 nM in [9]; 0.5 nM in assay [11]; 0.5 nM in [13]; 1.4 nM in assay [2]. For the same molecule, the “Activation %, aequorin bioluminescence” value in assay [10], in assay [12] and in assay [4] was 99% in each case. Further, the “EC50, aequorin bioluminescence” value in [10], in [12] and in assay [4] was 20 nM each time.

B3: SEQ. ID. NO. 14 (Ac-D-Cit^6 analog of Ac-hMCH(6-16)-NH2) (peptide)
peptide: XCMLGRVYRPC
modifications: N-terminal acetyl; D-Cit (D-citrulline) at position 6; C-terminal amide; disulfide cycle
As to B3, the IC50 was 134 nM in [1] and 3 nM in assay [2]. Besides, the results for the “Activation %, aequorin bioluminescence” value in [3] and in assay [4] were 68% and 91%, respectively. Also, the “EC50, aequorin bioluminescence” value in assay [3] is 310 nM; in assay [4], 920 nM.

Take DFDMLRCMLGRVYRPCWQV (disulfide 7-16 (inferred)) [human MCH]: the IC50 in assay [8], in assay [1] and in assay [9] was 0.5 nM each time. Also, the “Activation %, aequorin bioluminescence” value in assay [14], in assay [10], in [15], in assay [12], in assay [3] and in assay [4] was 100% each time. Besides, the “EC50, aequorin bioluminescence” value in assay [14], in [15] and in assay [3] was 30.7 nM in each case.

B4: SEQ. ID. NO. 31 (D-Arg^6, Nle^8, Asn^10 analog of Ac-hMCH(6-16)-NH2) (peptide)
peptide: XCXLNRVYRPC
HELM: PEPTIDE1{[ac].[dR].C.[Nle].L.N.R.V.Y.R.P.C.[am]}$PEPTIDE1,PEPTIDE1,3:R3-12:R3$$$V2.0
SMILES: CCCC[C@@H]1NC(=O)[C@@H](NC(=O)[C@@H](CCCNC(=N)N)NC(C)=O)CSSC[C@@H](C(N)=O)NC(=O)[C@@H]2CCCN2C(=O)[C@H](CCCNC(=N)N)NC(=O)[C@H](Cc2ccc(O)cc2)NC(=O)[C@H](C(C)C)NC(=O)[C@H](CCCNC(=N)N)NC(=O)[C@H](CC(N)=O)NC(=O)[C@H](CC(C)C)NC1=O
B4 showed an IC50 in assay [9] of 1600 nM. In assay [11], the IC50 worked out at 0.28 nM. In assay [15], the “Activation %, aequorin bioluminescence” value was found to be 23% and the “EC50, aequorin bioluminescence” value was found to be 5500 nM. Besides, in [12], the “Activation %, aequorin bioluminescence” value stood at 130%; the “EC50, aequorin bioluminescence” value was 240 nM; the “Selectivity 2/1 (MCH-2R/MCH-1R EC50 activity ratio)” value is 23 ratio. The “Selectivity 2/1 (MCH-2R/MCH-1R IC50 ratio)” value in [16] was found to be 5700 ratio.

B5: SEQ. ID. NO. 29 (D-Arg^6, Asn^10 analog of Ac-hMCH(6-16)-NH2) (peptide)
peptide: XCMLNRVYRPC
HELM: PEPTIDE1{[ac].[dR].C.M.L.N.R.V.Y.R.P.C.[am]}$PEPTIDE1,PEPTIDE1,3:R3-12:R3$$$V2.0
SMILES: CSCC[C@@H]1NC(=O)[C@@H](NC(=O)[C@@H](CCCNC(=N)N)NC(C)=O)CSSC[C@@H](C(N)=O)NC(=O)[C@@H]2CCCN2C(=O)[C@H](CCCNC(=N)N)NC(=O)[C@H](Cc2ccc(O)cc2)NC(=O)[C@H](C(C)C)NC(=O)[C@H](CCCNC(=N)N)NC(=O)[C@H](CC(N)=O)NC(=O)[C@H](CC(C)C)NC1=O
The molecule B5 registered an IC50 in assay [9] of 3300 nM. Further, the 50% inhibitory concentration (IC50) in [11] is 0.5 nM. Moreover, the “fold more selective as agonist for hMCH-1R than hMCH-2R” value in [17] was about 150 fold. Besides, in assay [15], the “Activation %, aequorin bioluminescence” value was 20% and the “EC50, aequorin bioluminescence” value came to 8400 nM. Further, in [12], the “Activation %, aequorin bioluminescence” value was 120%; the “EC50, aequorin bioluminescence” value worked out at 55 nM; the “Selectivity 2/1 (MCH-2R/MCH-1R EC50 activity ratio)” value was 150 ratio. The “Selectivity 2/1 (MCH-2R/MCH-1R IC50 ratio)” value in [16] was determined as 6600 ratio.

B6: SEQ. ID. NO. 33 (D-Arg^6, Asn^10, Ala^14 analog of Ac-hMCH(6-16)-NH2) (peptide)
peptide: XCMLNRVYAPC
HELM: PEPTIDE1{[ac].[dR].C.M.L.N.R.V.Y.A.P.C.[am]}$PEPTIDE1,PEPTIDE1,3:R3-12:R3$$$V2.0
SMILES: CSCC[C@@H]1NC(=O)[C@@H](NC(=O)[C@@H](CCCNC(=N)N)NC(C)=O)CSSC[C@@H](C(N)=O)NC(=O)[C@@H]2CCCN2C(=O)[C@H](C)NC(=O)[C@H](Cc2ccc(O)cc2)NC(=O)[C@H](C(C)C)NC(=O)[C@H](CCCNC(=N)N)NC(=O)[C@H](CC(N)=O)NC(=O)[C@H](CC(C)C)NC1=O
In turn, B6 returned an IC50 in [11] of 3.2 nM. In addition, in [17], the “fold more selective with respect to hMCH-2R” value was about 50 fold and the “fold weaker agonist than the parent compound” value stood at 5 fold. Besides, in assay [15], the “Activation %, aequorin bioluminescence” value worked out at 17% and the “EC50, aequorin bioluminescence” value is over 10000 nM. In [12], the “Activation %, aequorin bioluminescence” value turned out to be 109% and the “EC50, aequorin bioluminescence” value was 260 nM.

B7: SEQ. ID. NO. 30 (D-Arg^6, Gln^10 analog of Ac-hMCH(6-16)-NH2) (peptide)
peptide: XCMLQRVYRPC
HELM: PEPTIDE1{[ac].[dR].C.M.L.Q.R.V.Y.R.P.C.[am]}$PEPTIDE1,PEPTIDE1,3:R3-12:R3$$$V2.0
SMILES: CSCC[C@@H]1NC(=O)[C@@H](NC(=O)[C@@H](CCCNC(=N)N)NC(C)=O)CSSC[C@@H](C(N)=O)NC(=O)[C@@H]2CCCN2C(=O)[C@H](CCCNC(=N)N)NC(=O)[C@H](Cc2ccc(O)cc2)NC(=O)[C@H](C(C)C)NC(=O)[C@H](CCCNC(=N)N)NC(=O)[C@H](CCC(N)=O)NC(=O)[C@H](CC(C)C)NC1=O
With B7, the IC50 stood at 1400 nM in assay [9] and 6.1 nM in assay [11]. The “fold more selective as agonist for hMCH-1R than hMCH-2R” value in assay [17] was about 150 fold. For the same molecule, the entries for the “Activation %, aequorin bioluminescence” value in [15] and in [12] were 11% and 74%, respectively. In addition, the “EC50, aequorin bioluminescence” value in assay [15] is over 10000 nM; in assay [12], 2300 nM. Besides, in [16], the “Selectivity 2/1 (MCH-2R/MCH-1R IC50 ratio)” value amounted to 230 ratio.
